Measurements: the DeepSol protein solubility set

Experiment: soluble on expression in E. coli; label from the status in PepcDB or PDB records

Soluble on expression in E. coli, not soluble:
MNQEKLDLRKSAADDTHSGAAFAFQALTPDLILDAIESLGVYPETGLLALNSYENRVYQFRSDEGQRYVVKFYRPDRWSDAQIQEEHDFALALAEQEIPMAVPTAVQGHTLHHFQGFRFALFPSIGGRAFEVDNLEQLEFVGRFIGRMHQYGAQSVFQAREPLNPQILGDEPLAWLKQSELVPTSLRVAFFTVVEQVLAKVNTLWAQQRFKPIRLHGDLHPGNILWTPDGPGFVDLDDARMGPAIQDLWMMLTGDRAQQQLQLEVLLEAYEEFCEFDTRQLALIEPLRALRMVHYNAWIGRRWQDPAFPMHFPWFGDEKYWEQQILAFKEQLAALDEPPLSLIPY, MGSDKIHHHHHHMEQYKEVHINSLNKEELEKLAKMGQLIDVRTKEEYELGHINGSTLHPVEEIKSFNKNSNKTYYIHCKSGNRSTKACDYLAKQGYDVVNLKGGYKDYEAKNFNSAPLIEKDIEIKENRKQFDFRGLQCPGPIVNISKEINNISTGEQIEVTVTDPGFNSDIKSWAKQTGNTLVNLTEEANVINAIIQKEKPKEFEINDTATGTTIVLFSGELDKAVAAMIIANGAKAAGKDVTIFFTFWGLNALKKAQSTRVKKKGISKMFDLMLPKDPIHMPLSKMNMFGLGNIMMRYVMNKKNVDSLYSLIDQAIDQDIKLIACTMSMDVMGISKEELRDEVDYGGVGTYIGHTEQANHNLFI, MEKVHAALTNPAYWDFIVKNLSPEPGEVHEFTEANGGAVATLFEVLPQELLPEAIRAMISQALKVKRVVTVGGLNGTSAPLSYTADVKGTPVDFKGEISMNGLGNTTTLSYANEITVNIPLMGAAIEPKVGQALADLFQNEGDLTSKWISKNL, MAGHVNGTCAPVIPKVGDEEDGVGQLVANLKEKGTNFVLLKKTPQILELQTILKDRFCGKINDFRYFCRKNLLILNKLLFCLKKRFSWNLDFKNPLIHKFSGQKRHFKRFCQIFSDFESKFRYFHKFPGPKRSTNHSDFVFNADRLMRLVIEECLNHLPFTEHTVTTPTGFKYEGIQFNRGNCGVSLCRSGEAMEVSLRQCCRCIRIGKILIGDEQKVLYARLLPDITSRRVLLLYPTIGSGTTVCKAIEVLKEARVPDENIYLVSLFISPTGLKNITRKYPYITVVASDITSLYPNHFSTSYFGAV, MKDPRIEKLAYNLINYSIRLQKGEKVLIENFGLQKELVTALVKEAYAAGGFPFVSLKDHQVDRSLLMGATEEHFEQIAAYEASVMKDMDAYIGLRSGDNINEQADVPSERMKVHGQTVGKKVHRDIRVPKTRWVVLRYPNASMAQLAKMSTEAFEDFYFEVCNLDYGKMDKAMDSLVTLMNKTDKVRLTGPGTDLTFSIKDIPAIKCSGHLNIPDGEVYSAPVRDSVNGTVSYNTPSPYNGYTFENVQLKFENGQIVEATANDSERINKIFDTDEGARYVGEFAIGVNPYILHPMGDILFDEKIDGSFHFTPGQAYDDAWNGNNSNIHWDLVCIQRPEYGGGEIYFDDVLIRKDGRFVVPELEALNPENLK

Soluble on expression in E. coli, soluble:
MPGIRGPSEYSQEPPRHPSLKVNAKEPFNAEPPRSALVSSYVTPVDLFYKRNHGPIPIVDHLQSYSVTLTGLIQNPRKLFIKDIRSLPKYNVTATLQCAGNRRTAMSKVRNVRGVGWDVSAIGNAVWGGAKLADVLELVGIPKLTASTNLGARHVEFVSVDRCKEENGGPYKASITLSQATNPEADVLLAYEMNGETLNRDHGFPLRVVVPGVIGARSVKWLDSINVIAEESQGFFMQKDYKMFPPSVNWDNINWSSRRPQMDFPVQSAICSVEDVQMVKPGKVSIKGYAVSGGGRGIERVDISLDGGKNWVEASRTQEPGKQYISEHSSSDKWAWVLFEATIDVSQTTEVIAKAVDSAANVQPENVESVWNLRGVLNTSWHRVLLRLGHSNL, ADPALADVCRTKLPSQAQDTLALIAKNGPYPYNRDGVVFENRESRLPKKGNGYYHEFTVVTPGSNDRGTRRVVTGGYGEQYWSPDHYATFQEIDPRC
